Substitutions are numbered along the chain they refer to. Where two headings read alike, the source gives them in different places.
T1: DLAR D1HSS D2 (Drosophila melanogaster, UniProt P16621, C1670S)
T1 construct: DLAR 1448-2029; His tag (pET-15b or pET-22b); made in house; host or cells: E. coli BL21(DE3)
T1 sequence (P16621 1448-2029 C1670S): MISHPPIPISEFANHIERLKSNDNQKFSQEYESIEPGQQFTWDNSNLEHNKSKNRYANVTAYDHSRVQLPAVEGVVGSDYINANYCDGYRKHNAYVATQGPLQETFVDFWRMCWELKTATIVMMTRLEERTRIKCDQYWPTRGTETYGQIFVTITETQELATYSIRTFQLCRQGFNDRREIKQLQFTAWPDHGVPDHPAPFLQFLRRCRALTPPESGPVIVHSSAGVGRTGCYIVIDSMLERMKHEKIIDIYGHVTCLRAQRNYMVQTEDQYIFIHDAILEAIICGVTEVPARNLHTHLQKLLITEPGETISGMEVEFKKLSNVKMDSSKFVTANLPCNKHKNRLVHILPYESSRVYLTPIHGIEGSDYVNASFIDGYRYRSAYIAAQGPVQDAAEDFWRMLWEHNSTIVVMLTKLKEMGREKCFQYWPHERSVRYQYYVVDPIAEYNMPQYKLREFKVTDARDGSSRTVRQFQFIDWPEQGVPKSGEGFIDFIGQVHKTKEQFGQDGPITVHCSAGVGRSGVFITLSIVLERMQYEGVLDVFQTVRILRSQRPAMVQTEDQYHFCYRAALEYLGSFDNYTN

T2: DLAR D1D2 (Drosophila melanogaster, UniProt P16621)
T2 construct: DLAR 1448-2029; His tag (pET-15b or pET-22b); made in house; host or cells: E. coli BL21(DE3)
T2 sequence (P16621 1448-2029): T1 sequence (P16621 1448-2029 C1670S) with S223C

T3: DLAR D1 (Drosophila melanogaster, UniProt P16621)
T3 construct: DLAR 1448-1746; His tag (pET-15b or pET-22b); made in house; host or cells: E. coli BL21(DE3)
T3 sequence (P16621 1448-1746): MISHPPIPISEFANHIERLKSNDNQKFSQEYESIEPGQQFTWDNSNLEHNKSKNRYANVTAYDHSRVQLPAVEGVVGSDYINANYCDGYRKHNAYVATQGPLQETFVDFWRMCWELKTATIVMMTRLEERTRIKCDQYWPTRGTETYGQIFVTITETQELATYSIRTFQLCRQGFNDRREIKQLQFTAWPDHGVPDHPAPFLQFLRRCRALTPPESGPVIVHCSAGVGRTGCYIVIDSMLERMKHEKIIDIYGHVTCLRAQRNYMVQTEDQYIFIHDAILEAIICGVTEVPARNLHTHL

B1: PTP99A D1 D2 (Drosophila melanogaster) (protein)
chain: DEIRAAVPVNEFAKHVASLHADGDIGFSREYEAIQNECISDDLPCEHSQHPENKRKNRYLNITAYDHSRVHLHPTPGQKKNLDYINANFIDGYQKGHAFIGTQGPLPDTFDCFWRMIWEQRVAIIVMITNLVERGRRKCDMYWPKDGVETYGVIQVKLIEEEVMSTYTVRTLQIKHLKLKKKKQCNTEKLVYQYHYTNWPDHGTPDHPLPVLNFVKKSSAANPAEAGPIVVHCSAGVGRTGTYIVLDAMLKQIQQKNIVNVFGFLRHIRAQRNFLVQTEEQYIFLHDALVEAIASGETNLMAEQVEELKNCTPYLEQQYKNIIQFQPKDIHIASAMKQVNSIKNRGAIFPIEGSRVHLTPKPGEDGSDYINASWLHGFRRLRDFIVTQHPMAHTIKDFWQMVWDHNAQTVVLLSSLDDINFAQFWPDEATPIESDHYRVKFLNKTNKSDYVSRDFVIQSIQDDYELTVKMLHCPSWPEMSNPNSIYDFIVDVHERCNDYRNGPIVIVDRYGGAQACTFCAISSLAIEMEYCSTANVYQYAKLYHNKRPGVWTSSEDIRVIYNILSFLPGNLNLLKRTALRTEFEDVTTATPDLYSKICSNG
B2: PTP99A D1 (Drosophila melanogaster) (protein)
chain: DEIRAAVPVNEFAKHVASLHADGDIGFSREYEAIQNECISDDLPCEHSQHPENKRKNRYLNITAYDHSRVHLHPTPGQKKNLDYINANFIDGYQKGHAFIGTQGPLPDTFDCFWRMIWEQRVAIIVMITNLVERGRRKCDMYWPKDGVETYGVIQVKLIEEEVMSTYTVRTLQIKHLKLKKKKQCNTEKLVYQYHYTNWPDHGTPDHPLPVLNFVKKSSAANPAEAGPIVVHCSAGVGRTGTYIVLDAMLKQIQQKNIVNVFGFLRHIRAQRNFLVQTEEQYIFLHDALVEAIASGETNLMAEQVEE

Tests used:
[1] = biological target: T1, DLAR D1HSS D2; assay: Surface Plasmon Resonance peptide binding, DLAR D1HSS D2; conditions: two-site model, read-out: ka
Method: (§1) The binding of phosphotyrosine peptides to the PTP domains was studied by Surface Plasmon Resonance on a Biacore-2000 instrument (BIAcore, AB). All experiments were conducted at 25°C. DLAR PTP domains were immobilized onto carboxylated dextran CM5 chips (BIAcore AB) using the standard amine coupling procedure as recommended by the manufacturer. Binding and kinetic assays were performed in 10 mM HEPES, pH 8.0, 150 mM NaCl, 10 mM DTT and 3 mM EDTA at a flow rate of 5 µL/min. The peptides were used at concentrations ranging from 50–700 µM. Dissociation was initiated by replacing the analyte with buffer. The association and dissociation curves were monitored for 600 sec. Sensograms were analyzed with BIA-evaluation software version 2 (BIAcore AB). Sensograms for DLAR D1D2, DLAR D1HSSD2 and DLAR D1D2HSS were fitted to two-site binding equations. DLAR D1 and DLAR D2 sensograms were fitted using a single-site binding model.

[2] = biological target: T2, DLAR D1D2; assay: Surface Plasmon Resonance peptide binding, DLAR D1D2; conditions: two-site model; for kon: read-out: ka
Method: as §1

[3] = biological target: T2, DLAR D1D2; assay: Dephosphorylation of phosphotyrosine peptides (malachite green), DLAR D1D2; assay type: biochemical; conditions: 0.01 µM protein, 25 mM citrate pH 6.0, 15 min at 25°C, malachite green
Text: (§2) Substrates of PTPs characterized thus far include the activation loop segments of various kinases and regulatory loops of other signaling proteins. Suitably designed peptide substrates mimic the physiologically relevant substrates of PTPs. In the present study, peptide substrates were designed for DLAR for which more information was available on its interacting partners. […] The five peptides were chosen based on their distinct charge distributions around the central phosphotyrosine residue. The phosphorylated as well as non-phosphorylated peptides were obtained from GL Bioscience, China. The peptides were >95% pure and were used after a single round of desalting using a Sephadex G25 column (GE Healthcare). The concentration of the peptide samples for biochemical studies was ascertained by UV absorption at 268 nm for the pY residue.
(§3) Phosphatase activity of the recombinant PTP domains was determined by using para-Nitrophenylphosphate (pNPP), a small molecule generic substrate, as well as phosphotyrosine containing peptides. The pNPP assay was performed as reported previously, with a modification in the buffer composition (25 mM Citrate, Glycine and HEPES (CGH), pH 6.5, 100 mM NaCl and 2 mM DTT). Phosphatase activity with the phosphotyrosine peptides was ascertained by the malachite green reaction as described for PTPs previously. Briefly, the reaction mixture comprised of 0.01 µM protein incubated with increasing concentrations of different peptides in 25 mM citrate buffer pH 6.0, 100 mM NaCl and 2 mM DTT for 15 min at 25°C. The reaction was stopped by the addition of the Biomol Green reagent (Enzo Life Sciences) and the colour developed after 20 min was quantified at 650 nm. For all the assays, kinetic constants for the steady state catalysis were obtained by fitting the reaction curves to the Michaelis-Menten equation using the nonlinear regression module of Sigma plot software (Systat Software, Inc.).

[4] = biological target: T4, DLAR D1 D2HSS (Drosophila melanogaster, UniProt P16621, C1961S); assay: Surface Plasmon Resonance peptide binding, DLAR D1 D2HSS; conditions: two-site model, read-out: ka
T4 construct: DLAR 1448-2029; His tag (pET-15b or pET-22b); made in house; host or cells: E. coli BL21(DE3)
T4 sequence (P16621 1448-2029 C1961S): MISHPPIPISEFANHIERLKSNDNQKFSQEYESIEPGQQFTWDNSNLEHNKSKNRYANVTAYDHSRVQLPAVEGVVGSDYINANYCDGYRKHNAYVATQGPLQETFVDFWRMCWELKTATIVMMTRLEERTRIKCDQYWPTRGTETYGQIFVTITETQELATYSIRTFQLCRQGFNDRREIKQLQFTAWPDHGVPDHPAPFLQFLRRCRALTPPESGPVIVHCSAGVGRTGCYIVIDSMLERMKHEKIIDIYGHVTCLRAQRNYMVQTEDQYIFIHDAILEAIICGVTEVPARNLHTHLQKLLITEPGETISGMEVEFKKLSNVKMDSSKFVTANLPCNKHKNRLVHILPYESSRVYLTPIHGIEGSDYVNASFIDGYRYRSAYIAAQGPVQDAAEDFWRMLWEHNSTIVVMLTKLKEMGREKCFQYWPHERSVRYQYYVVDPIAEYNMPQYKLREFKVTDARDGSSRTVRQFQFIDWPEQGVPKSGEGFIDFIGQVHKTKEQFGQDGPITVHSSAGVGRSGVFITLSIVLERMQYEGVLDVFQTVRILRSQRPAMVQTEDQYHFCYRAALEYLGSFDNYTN
Method: as §1

[5] = biological target: T4, DLAR D1 D2HSS; assay type: biochemical; conditions: 0.01 µM protein, 25 mM citrate pH 6.0, 15 min at 25°C, malachite green
Text: as §2, §3

[6] = biological target: T3, DLAR D1; assay: Dephosphorylation of phosphotyrosine peptides (malachite green), DLAR D1; assay type: biochemical; conditions: 0.01 µM protein, 25 mM citrate pH 6.0, 15 min at 25°C, malachite green
Text: as §2, §3

[7] = substrate: CC[C@H](C)[C@H](NC(=O)[C@H](CC(=O)O)NC(=O)[C@H](CCCNC(=N)N)NC(=O)[C@@H](N)[C@@H](C)O)C(=O)N[C@@H](Cc1ccc(OP(=O)(O)O)cc1)C(=O)N[C@@H](CCC(=O)O)C(=O)N[C@H](C(=O)N[C@@H](CC(=O)O)C(=O)N[C@@H](Cc1ccc(O)cc1)C(=O)N[C@@H](Cc1ccc(O)cc1)C(=O)N[C@@H](CCCNC(=N)N)C(=O)N[C@@H](CCCCN)C(=O)O)[C@@H](C)O; assay: purified protein, by the assay type; conditions: other: 0.01 µM protein, 25 mM citrate pH 6.0, 15 min at 25°C, malachite green
Method: (§4) Phosphatase activity with the phosphotyrosine peptides was ascertained by the malachite green reaction as described for PTPs previously [14]. Briefly, the reaction mixture comprised of 0.01 µM protein incubated with increasing concentrations of different peptides in 25 mM citrate buffer pH 6.0, 100 mM NaCl and 2 mM DTT for 15 min at 25°C. The reaction was stopped by the addition of the Biomol Green reagent (Enzo Life Sciences) and the colour developed after 20 min was quantified at 650 nm. For all the assays, kinetic constants for the steady state catalysis were obtained by fitting the reaction curves to the Michaelis-Menten equation using the nonlinear regression module of Sigma plot software (Systat Software, Inc.).

[8] = substrate: CC(C)C[C@H](NC(=O)[C@H](C)NC(=O)CNC(=O)[C@H](Cc1ccc(OP(=O)(O)O)cc1)NC(=O)[C@H](CC(=O)O)NC(=O)[C@@H]1CCCN1C(=O)[C@H](CCC(=O)O)NC(=O)[C@H](C)NC(=O)[C@@H](N)[C@@H](C)O)C(=O)N[C@@H](Cc1ccc(O)cc1)C(=O)N[C@@H](CCC(=O)O)C(=O)O; assay: purified protein, by the assay type; conditions: other: 0.01 µM protein, 25 mM citrate pH 6.0, 15 min at 25°C, malachite green
Method: as §4

[9] = pH 8, SPR Biacore-2000, 25°C, 10 mM HEPES pH 8.0, 150 mM NaCl, 10 mM DTT, 3 mM EDTA, peptides 50–700 µM, first binding site
[10] = pH 8, SPR, 25°C, pH 8.0, second binding site

Row | Molecule | kon [1, 9] [M⁻¹ s⁻¹] | kon [1, 10] [M⁻¹ s⁻¹] | Kd ([2]; SPR, 25°C, pH 8.0, first binding site) [µM] | kon [2, 9] [M⁻¹ s⁻¹] | kon [2, 10] [M⁻¹ s⁻¹] | Km [3] [µM] | kon [4, 9] [M⁻¹ s⁻¹] | kon [4, 10] [M⁻¹ s⁻¹] | Km [5] [µM] | Km [6] [µM] | Km [7] [µM] | Vmax [7] [µmol/min/mg] | kcat [7] [s⁻¹] | kcat/Km [7] [M⁻¹ s⁻¹] | Km [8] [µM] | Vmax [8] [µmol/min/mg] | kcat [8] [s⁻¹] | kcat/Km [8] [M⁻¹ s⁻¹]
1 | CC[C@H](C)[C@H](NC(=O)[C@H](CC(=O)O)NC(=O)[C@H](CCCNC(=N)N)NC(=O)[C@@H](N)[C@@H](C)O)C(=O)N[C@@H](Cc1ccc(OP(=O)(O)O)cc1)C(=O)N[C@@H](CCC(=O)O)C(=O)N[C@H](C(=O)N[C@@H](CC(=O)O)C(=O)N[C@@H](Cc1ccc(O)cc1)C(=O)N[C@@H](Cc1ccc(O)cc1)C(=O)N[C@@H](CCCNC(=N)N)C(=O)N[C@@H](CCCCN)C(=O)O)[C@@H](C)O [Insulin Receptor peptide] | 72.6 ± 1.2 | 74.5 ± 1.6 | 62.2 ± 0.48 | 110 ± 2.32 | 2860 ± 90000 | 110 ± 7.82 | 137 ± 2.84 | 12.3 ± 0.02 | 45.3 ± 4.1 | 59.5 ± 5.6 | – | – | – | – | – | – | – | –
2 | B1 | – | – | – | – | – | – | – | – | – | – | 35.75 ± 2.08 | 46 | 56.9 ± 1.03 | 1.638e+06 ± 7400 | 112.42 ± 10.14 | 17.1 | 21.1 ± 0.82 | 188000 ± 12900
3 | B2 | – | – | – | – | – | – | – | – | – | – | 1017 ± 161.84 | 2.37 | 1.58 ± 0.11 | 1550 ± 22 | 309.04 ± 33.32 | 1.26 | 0.84 ± 0.04 | 2718 ± 15

From article PMC3172300, “Modulation of Catalytic Activity in Multi-Domain Protein Tyrosine Phosphatases” (PLoS ONE, 2011)
